Patent publication US6706266, “Oncostatin M antagonists” (SmithKline Beecham Corporation)
Positions count from the first letter of the chain named. Names may count otherwise. “And” between values parts separate entries of the source, which are not always exact repeats. Identical values can stand only once.

B1: OSM-GST mutant L14A (ligand)
chain: AAIGSCSKEYRVLAGQLQKQTDLMQDTSRLLDPYIRIQGLDVPKLREHCRERPGAFPSEETLRGLGRRGFLQTLNATLGCVLHRLADLEQRLPKAQDLERSGLNIEDLEKLQMARPNILGLRNNIYCMAQLLDNSDTAEPTKAGRGASQPPTPTPASDAFQRKLEGCRFLHGYHRFMHSVGRVFSKWGESPNRSRR
notes: Alanine mutant of m4; also called (7)L14A; 7 L14A; not shown: Its linker is left out
B2: OSM-GST mutant L119A (ligand, not shown: a dimerising Fc or GST; large carriers; small tags and cut ends)
chain: B1 chain with A14L, L119A
notes: Alanine mutant of m4; also called (19)L119A; 19 L119A
B3: OSM-GST mutant N124A (ligand, not shown: a dimerising Fc or GST; large carriers; small tags and cut ends)
chain: B1 chain with A14L, N124A
notes: Alanine mutant of m4; also called (23)N124A; 23 N124A
B4: OSM-GST mutant R122A (ligand, not shown: a dimerising Fc or GST; large carriers; small tags and cut ends)
chain: B1 chain with A14L, R122A
notes: Alanine mutant of m4; also called (21)R122A; 21 R122A
B5: OSM-GST mutant Q18A (ligand)
chain: B1 chain with A14L, Q18A
notes: Alanine mutant of m4; also called (11)Q18A; 11 Q18A; not shown: Its linker is left out
B6: OSM-GST mutant Y126A (ligand, not shown: a dimerising Fc or GST; large carriers; small tags and cut ends)
chain: B1 chain with A14L, Y126A
notes: Alanine mutant of m4; also called (24)Y126A; 24 Y126A
B7: OSM-GST mutant Q25A (ligand, not shown: a dimerising Fc or GST; large carriers; small tags and cut ends)
chain: B1 chain with A14L, Q25A
notes: Alanine mutant of m4; also called (26)Q25A; 26 Q25A
B8: OSM-GST mutant P116A (ligand, not shown: a dimerising Fc or GST; large carriers; small tags and cut ends)
chain: B1 chain with A14L, P116A
notes: Alanine mutant of m4; also called (17)P116A; 17 P116A
B9: OSM-GST mutant N117A (ligand, not shown: a dimerising Fc or GST; large carriers; small tags and cut ends)
chain: B1 chain with A14L, N117A
notes: Alanine mutant of m4; also called (18)N117A; 18 N117A
B10: OSM-GST mutant R11A (ligand, not shown: a dimerising Fc or GST; large carriers; small tags and cut ends)
chain: B1 chain with R11A, A14L
notes: Alanine mutant of m4; also called (5)R11A; 5 R11A
B11: OSM-GST mutant T21A (ligand, not shown: a dimerising Fc or GST; large carriers; small tags and cut ends)
chain: B1 chain with A14L, T21A
notes: Alanine mutant of m4; also called (14)T21A; 14 T21A
B12: OSM-GST mutant M113A (ligand, not shown: a dimerising Fc or GST; large carriers; small tags and cut ends)
chain: B1 chain with A14L, M113A
notes: Alanine mutant of m4; also called (16)M113; 16 M113A
B13: OSM-GST mutant Y10A (ligand, not shown: a dimerising Fc or GST; large carriers; small tags and cut ends)
chain: B1 chain with Y10A, A14L
notes: Alanine mutant of m4; also called (4)Y10A; 4 Y10A
B14: OSM-GST mutant Q130A (ligand, not shown: a dimerising Fc or GST; large carriers; small tags and cut ends)
chain: B1 chain with A14L, Q130A
notes: Alanine mutant of m4; also called (25)Y130A; 25 Q130A
B15: OSM-GST mutant L17A (ligand)
chain: B1 chain with A14L, L17A
notes: Alanine mutant of m4; also called (10)L17A; 10 L17A; not shown: Its linker is left out
B16: OSM-GST mutant S7A (ligand, not shown: a dimerising Fc or GST; large carriers; small tags and cut ends)
chain: B1 chain with S7A, A14L
notes: Alanine mutant of m4; also called (1)S7A; 1 S7A

biological target: T1, gp130-Fc fusion protein (human, UniProt P40189 23-619); assay: competition ELISA: OSM-GST titrated against plate-bound wt OSM for gp130-Fc; single experiment
T1 construct: extracellular domain; not shown: Fc fragment of human IgG1
T1 sequence (looked up): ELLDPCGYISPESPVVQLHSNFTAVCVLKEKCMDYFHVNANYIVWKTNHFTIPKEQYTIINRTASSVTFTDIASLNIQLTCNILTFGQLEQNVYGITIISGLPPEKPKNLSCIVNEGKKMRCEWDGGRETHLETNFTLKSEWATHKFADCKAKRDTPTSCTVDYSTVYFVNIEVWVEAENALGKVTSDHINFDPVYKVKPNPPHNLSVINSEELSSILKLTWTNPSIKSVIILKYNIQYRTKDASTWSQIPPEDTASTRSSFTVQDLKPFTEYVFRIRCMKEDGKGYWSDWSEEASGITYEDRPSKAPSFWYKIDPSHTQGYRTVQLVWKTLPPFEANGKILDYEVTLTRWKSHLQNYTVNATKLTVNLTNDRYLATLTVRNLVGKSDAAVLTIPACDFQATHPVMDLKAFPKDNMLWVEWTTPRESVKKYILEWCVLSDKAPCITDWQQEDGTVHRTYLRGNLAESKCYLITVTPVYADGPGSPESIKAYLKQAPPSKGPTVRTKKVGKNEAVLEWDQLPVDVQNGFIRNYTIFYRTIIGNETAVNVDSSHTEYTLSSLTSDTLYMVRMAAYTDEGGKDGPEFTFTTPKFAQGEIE
Procedure: (§1) Plates were washed (×6 in PBS 0.05% tween 20, using Skatron Plate washer), tapped dry and blocked to reduce non-specific binding (200 µl/well, 1% BSA/PBS). Following 1 h incubation (room temperature on a shaking platform) the plates were tapped dry and wild type (wt) or mutant OSM-GST from Example 9b added (50 µl/well, 20–0.002 µg/ml, titrated in 1%BSA/PBS). As a positive control polyclonal anti-human OSM antibody (R&D Systems) was also tested (20–0.02 µg/ml). […] Following a 5 h incubation (room temperature on a shaking platform) the plates were washed (×6) and developed using ELISA Amplification System (Life Technologies) as manufacturer's instructions and the OD measured at 490 nm.

For B1, the IC50 was 0.66 µg/mL and 0.47 µg/mL and 0.412 µg/mL.
In the case of B2, the IC50 is reported as 0.272 µg/mL and 0.266 µg/mL and 0.227 µg/mL.
With B3 the IC50 was 1.63 µg/mL and 1.95 µg/mL and 2.38 µg/mL.
In the case of B4, the IC50 is reported as 0.14 µg/mL and 0.22 µg/mL and 0.167 µg/mL.
For B5, the IC50 was 0.32 µg/mL and 0.31 µg/mL and 0.555 µg/mL.
In the case of B6, the IC50 is reported as 0.386 µg/mL and 0.359 µg/mL and 0.4 µg/mL.
B7 was tested, and the IC50 was 0.042 µg/mL and 0.036 µg/mL and 0.055 µg/mL.
With B8 the IC50 was 0.232 µg/mL and 0.169 µg/mL and 0.197 µg/mL.
For B9, the IC50 was 0.983 µg/mL and 0.756 µg/mL and 0.617 µg/mL.
B10 was tested, and the IC50 was 0.181 µg/mL and 0.255 µg/mL and 0.28 µg/mL.
B11 was tested, and the IC50 was 0.108 µg/mL and 0.044 µg/mL and 0.101 µg/mL.
With B12 the IC50 was 0.511 µg/mL and 0.199 µg/mL and 0.252 µg/mL.
B13 was tested, and the IC50 was 0.32 µg/mL and 0.18 µg/mL and 0.168 µg/mL.
In the case of B14, the IC50 is reported as 0.145 µg/mL and 0.18 µg/mL and 0.094 µg/mL.
In the case of B15, the IC50 is reported as 2.21 µg/mL and 1.9 µg/mL and 1.35 µg/mL.
With B16 the IC50 was 0.199 µg/mL and 0.078 µg/mL and 0.121 µg/mL.

biological target: T1, gp130-Fc fusion protein; assay: competition ELISA: OSM-GST titrated against plate-bound wt OSM for gp130-Fc; mean
Procedure: as §1

In order of rising IC50:
1. B7  0.044 µg/mL
2. B11  0.084 µg/mL
3. B16  0.133 µg/mL
4. B14  0.14 µg/mL
5. B4  0.176 µg/mL
6. B8  0.199 µg/mL
7. B13  0.223 µg/mL
8. B10  0.239 µg/mL
9. B2  0.255 µg/mL
10. B12  0.321 µg/mL
11. B6  0.382 µg/mL
12. B5  0.395 µg/mL
13. B1  0.514 µg/mL
14. B9  0.785 µg/mL
15. B15  1.82 µg/mL
16. B3  1.99 µg/mL

biological target: T2, gp130 on HepG2 B6 cells (UniProt P40189 23-918, limits assumed); assay: cell-based or functional assay
T2 sequence (looked up): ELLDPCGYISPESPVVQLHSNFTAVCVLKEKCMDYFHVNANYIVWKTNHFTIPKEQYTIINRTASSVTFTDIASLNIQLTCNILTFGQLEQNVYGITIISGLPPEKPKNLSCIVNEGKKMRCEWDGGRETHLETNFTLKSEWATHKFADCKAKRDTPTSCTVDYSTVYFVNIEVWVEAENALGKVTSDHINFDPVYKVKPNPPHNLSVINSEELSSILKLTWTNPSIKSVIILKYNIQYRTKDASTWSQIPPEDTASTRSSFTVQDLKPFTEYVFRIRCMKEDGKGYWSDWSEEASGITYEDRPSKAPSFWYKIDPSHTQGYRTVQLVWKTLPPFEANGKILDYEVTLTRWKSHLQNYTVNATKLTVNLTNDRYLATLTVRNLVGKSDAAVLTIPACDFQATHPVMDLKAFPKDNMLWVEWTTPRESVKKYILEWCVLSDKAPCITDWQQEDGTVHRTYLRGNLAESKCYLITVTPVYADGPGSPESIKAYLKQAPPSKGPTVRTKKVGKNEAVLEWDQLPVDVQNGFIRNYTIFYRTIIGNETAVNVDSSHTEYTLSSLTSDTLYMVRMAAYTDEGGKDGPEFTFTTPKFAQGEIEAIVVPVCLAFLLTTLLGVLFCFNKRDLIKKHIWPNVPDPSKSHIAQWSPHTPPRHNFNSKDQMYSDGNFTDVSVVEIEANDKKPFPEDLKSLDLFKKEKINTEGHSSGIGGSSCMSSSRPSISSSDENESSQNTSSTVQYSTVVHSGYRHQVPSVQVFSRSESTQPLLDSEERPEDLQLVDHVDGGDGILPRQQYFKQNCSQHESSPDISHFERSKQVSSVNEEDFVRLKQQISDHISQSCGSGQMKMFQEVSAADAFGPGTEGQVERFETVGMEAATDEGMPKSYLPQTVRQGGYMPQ

In order of rising “sPAP HepG2 B6 assay: Expt 1 % (EC50 as % of wild type EC50)” value:
1. B16  50%
2. B14  52%
3. B7  55%
4. B11  71%
5. B1  81%
6. B5  84%
7. B8  104%
8. B12  106%
9. B2  115%
10. B10  118%
11. B3  125%
12. B13  134%
13. B4  135%
14. B9  241%
15. B15  301%
16. B6  386%

In order of rising “sPAP HepG2 B6 assay: Expt 1 EC50” value:
1. B16  0.012 µg/mL
2. B14  0.0125 µg/mL
3. B7  0.0133 µg/mL
4. B11  0.017 µg/mL
5. B1  0.0194 µg/mL
6. B5  0.0202 µg/mL
7. B8  0.025 µg/mL
8. B12  0.0256 µg/mL
9. B2  0.0278 µg/mL
10. B10  0.0286 µg/mL
11. B3  0.0302 µg/mL
12. B4  0.0324 µg/mL
13. B13  0.0324 µg/mL
14. B9  0.058 µg/mL
15. B15  0.0727 µg/mL
16. B6  0.093 µg/mL

In order of falling “sPAP HepG2 B6 assay: Expt 2 % (EC50 as % of wild type EC50)” value:
1. B13  256%
2. B15  174%
3. B9  132%
4. B3  113%
5. B10  86%
6. B12  78%
7. B1  77%
8. B2  72%
9. B16  69%
10. B5  68%
11. B8  47%
12. B4  43%
13. B7  41%
14. B11  33%
15. B6  32%
16. B14  26%

In order of rising “sPAP HepG2 B6 assay: Expt 2 EC50” value:
1. B14  0.0082 µg/mL
2. B6  0.0103 µg/mL
3. B11  0.0105 µg/mL
4. B7  0.013 µg/mL
5. B4  0.0138 µg/mL
6. B8  0.015 µg/mL
7. B5  0.0217 µg/mL
8. B16  0.0222 µg/mL
9. B2  0.023 µg/mL
10. B1  0.0249 µg/mL
11. B12  0.025 µg/mL
12. B10  0.0277 µg/mL
13. B3  0.0362 µg/mL
14. B9  0.0425 µg/mL
15. B15  0.056 µg/mL
16. B13  0.082 µg/mL

In order of rising “sPAP HepG2 B6 assay: Mean % of wild type EC50” value:
1. B14  39%
2. B7  48%
3. B11  52%
4. B16  59.5%
5. B8  75.5%
6. B5  76%
7. B1  79%
8. B12  92%
9. B2  93.5%
10. B4  101%
11. B10  102%
12. B3  119%
13. B6  175%
14. B9  186%
15. B13  195%
16. B15  238%

In order of falling “sPAP HepG2 B6 assay: Expt 3 % (EC50 as % of wild type EC50)” value:
1. B4  124%
2. B6  106%

In order of falling “sPAP HepG2 B6 assay: Expt 3 EC50” value:
1. B4  0.0473 µg/mL
2. B6  0.0408 µg/mL
